PMC2879525

Target: rLdACT (Leishmania actin) (Leishmania donovani, UniProt Q86M27 1-376)
Assay: EMSA

B1: 30 bp DNA probe (dsDNA)
DNA 1: GCGGCCGCATGGCTGACAACGAGCAGAGCT
DNA 2: AGCTCTGCTCGTTGTCAGCCATGCGGCCGC
binding result: binds
